Measured values taken from the Human Domainome abundance scans (Beltran et al. 2025).
± gives the uncertainty stated by the source.

B1: Myocardin, residues 363 to 406; numbered along this chain, Q8IZQ8 (parent)
chain: KPGPLPPNLDDLKVSELRQQLRIRGLPVSGTKTALMDRLRPFQD

Variants of: B1
Experiment: abundance fitness (aPCA) (normalised: wild type 0, dead -1); higher = more abundant; growth selection in yeast, the domain comes from the species named
Details: Homo sapiens

Row | Variant | abundance fitness
1 | KPGPLPKNLDDLKVSELRQQLRIRGLPVSGTKTALMDRLRPFQD [P7K] | 0.464 ± 0.083
2 | KPGPLPPNLDDLKVSELRQQMRIRGLPVSGTKTALMDRLRPFQD [L21M] | -0.321 ± 0.12
3 | KPGPLPPNLDDLKVSELRQQLRIRGLPVSGTKTAIMDRLRPFQD [L35I] | 0.092 ± 0.26
4 | KPGPLPPNLDDLKVSELRQQLRIRGLPVSGTKTALMTRLRPFQD [D37T] | -0.452 ± 0.085
5 | KPGPLPPNLDQLKVSELRQQLRIRGLPVSGTKTALMDRLRPFQD [D11Q] | -0.007 ± 0.075
6 | KPGPLPPNLDDLKVSELRQQLRIRGLPVSGLKTALMDRLRPFQD [T31L] | -0.344 ± 0.092
7 | KPGPLPPNLDDRKVSELRQQLRIRGLPVSGTKTALMDRLRPFQD [L12R] | -0.394 ± 0.064
8 | KPGPLPPNLDDLKVSELRQQLRIRGLPVSGTKTALMDRQRPFQD [L39Q] | -0.465 ± 0.14
9 | KPGPLPPVLDDLKVSELRQQLRIRGLPVSGTKTALMDRLRPFQD [N8V] | -0.048 ± 0.063
10 | KPGPLPPNLDELKVSELRQQLRIRGLPVSGTKTALMDRLRPFQD [D11E] | -0.082 ± 0.093
11 | KPGPLPPNLDDLKVSELRQQLRPRGLPVSGTKTALMDRLRPFQD [I23P] | -0.605 ± 0.12
12 | KPGPLPPNQDDLKVSELRQQLRIRGLPVSGTKTALMDRLRPFQD [L9Q] | -0.278 ± 0.083
13 | KPGPLPPNLDDLKVSELRQQLRQRGLPVSGTKTALMDRLRPFQD [I23Q] | -0.229 ± 0.092
14 | KPGPRPPNLDDLKVSELRQQLRIRGLPVSGTKTALMDRLRPFQD [L5R] | -0.448 ± 0.062
15 | KPGPLPPNLDDLKVSELRQQLRIRGLPVSGTTTALMDRLRPFQD [K32T] | -0.349 ± 0.083
16 | KPGPLPPNLDDLKVSELCQQLRIRGLPVSGTKTALMDRLRPFQD [R18C] | 0.116 ± 0.26
17 | KPGPLPPNLDDLKVSELRQQLRIRGLPVSGTKTELMDRLRPFQD [A34E] | 0.011 ± 0.066
18 | KPGPLPPNLDDLKVSELRQQLRIRGLPVSGTKTALMDRSRPFQD [L39S] | -0.601 ± 0.13
19 | KPGPLPPNLDDLKVSELRQQLRIRMLPVSGTKTALMDRLRPFQD [G25M] | -0.358 ± 0.14
20 | KPYPLPPNLDDLKVSELRQQLRIRGLPVSGTKTALMDRLRPFQD [G3Y] | -0.067 ± 0.13

Row | Variant | abundance fitness
21 | KPGPYPPNLDDLKVSELRQQLRIRGLPVSGTKTALMDRLRPFQD [L5Y] | -0.204 ± 0.18
22 | KPGPLPPNLDDLKVSELRQQLKIRGLPVSGTKTALMDRLRPFQD [R22K] | 0.063 ± 0.12
23 | KPGNLPPNLDDLKVSELRQQLRIRGLPVSGTKTALMDRLRPFQD [P4N] | 0.463 ± 0.12
24 | KPGPLPPNLDDLKVCELRQQLRIRGLPVSGTKTALMDRLRPFQD [S15C] | -0.168 ± 0.098
25 | KPGPCPPNLDDLKVSELRQQLRIRGLPVSGTKTALMDRLRPFQD [L5C] | -0.044 ± 0.1
26 | KPGPLPPNLDDLKVMELRQQLRIRGLPVSGTKTALMDRLRPFQD [S15M] | -0.245 ± 0.12
27 | KPGPLTPNLDDLKVSELRQQLRIRGLPVSGTKTALMDRLRPFQD [P6T] | -0.197 ± 0.14
28 | KPGPLPPNLDDLKVSELRQQLRIRGLPVSDTKTALMDRLRPFQD [G30D] | -0.504 ± 0.13
29 | KKGPLPPNLDDLKVSELRQQLRIRGLPVSGTKTALMDRLRPFQD [P2K] | 0.284 ± 0.095
30 | KPGPLPPNLDDLKVSELRQQLRIRGLPVSGTDTALMDRLRPFQD [K32D] | -0.489 ± 0.1
31 | KPGPLPPNLDDLKVSELRQQLRIRGLPVSGTKTALMDRLWPFQD [R40W] | -0.731 ± 0.17
32 | KPGPLPPNLDDLKVSELRQQLWIRGLPVSGTKTALMDRLRPFQD [R22W] | -0.771 ± 0.12
33 | KPGPLPPNMDDLKVSELRQQLRIRGLPVSGTKTALMDRLRPFQD [L9M] | -0.543 ± 0.13
34 | KPGPLPPNLDDLKVSELRQQLRIRGLPVSGTKTALMDDLRPFQD [R38D] | -0.795 ± 0.19
35 | KPGPLPPNLDDHKVSELRQQLRIRGLPVSGTKTALMDRLRPFQD [L12H] | -0.614 ± 0.14
36 | KPGPLPPNLDDLKVSELRQQLRIRGLPVSGTKTALMDRLRPKQD [F42K] | -0.09 ± 0.14
37 | RPGPLPPNLDDLKVSELRQQLRIRGLPVSGTKTALMDRLRPFQD [K1R] | -1 ± 0.12
38 | KPGPLPPNLDDLKVSELRQQLRIRGSPVSGTKTALMDRLRPFQD [L26S] | -0.562 ± 0.1
39 | KPGPLPLNLDDLKVSELRQQLRIRGLPVSGTKTALMDRLRPFQD [P7L] | -0.001 ± 0.07
40 | KPGPLPPNLDDLKVSELRQQLRIRGLPVSGTKTALMDRLRPFGD [Q43G] | -0.152 ± 0.064

Row | Variant | abundance fitness
41 | KPGPLPPNLDDLKVSELRQQLRIRGLPVSGTKTALMDRLRAFQD [P41A] | 0.037 ± 0.077
42 | KPGPLPPNLDDLKVSELFQQLRIRGLPVSGTKTALMDRLRPFQD [R18F] | -0.481 ± 0.16
43 | KPGPLPPNLDDLKVSELRQQLRIRGLPVSGTKTALMDRWRPFQD [L39W] | -0.77 ± 0.1
44 | KPGPLPPNLDDLKVSELRQQLRIRGLWVSGTKTALMDRLRPFQD [P27W] | -0.951 ± 0.15
45 | KPGPLPPNLDDLKVSELRQQLRIRGAPVSGTKTALMDRLRPFQD [L26A] | -0.479 ± 0.094
46 | KPGPLPPNLDDLKVSELRQQLRIRGLPVSGTKTALGDRLRPFQD [M36G] | -0.668 ± 0.074
47 | KPGPLPPDLDDLKVSELRQQLRIRGLPVSGTKTALMDRLRPFQD [N8D] | -0.246 ± 0.068
48 | KPGPLPPNLDDLKVSELRQQLRIRGLPVSGTKTALMQRLRPFQD [D37Q] | -0.165 ± 0.098
49 | KPGPLPPNLKDLKVSELRQQLRIRGLPVSGTKTALMDRLRPFQD [D10K] | -0.076 ± 0.11
50 | KPGSLPPNLDDLKVSELRQQLRIRGLPVSGTKTALMDRLRPFQD [P4S] | 0.078 ± 0.079
51 | KPGPLPPNLDDLKVSELRQQLRIRGLPVSGTKLALMDRLRPFQD [T33L] | -0.19 ± 0.079
52 | KPGPLPPNLDDNKVSELRQQLRIRGLPVSGTKTALMDRLRPFQD [L12N] | -0.507 ± 0.21
53 | KPGPLPPNLDDLKVSELRQQLRIRGLPVSGTKTFLMDRLRPFQD [A34F] | -0.909 ± 0.22
54 | KPGPLPPNLDDLKVPELRQQLRIRGLPVSGTKTALMDRLRPFQD [S15P] | -0.346 ± 0.077
55 | KPGPLPPNLDDLKVSELRQQLRIRGLPWSGTKTALMDRLRPFQD [V28W] | -0.13 ± 0.089
56 | KPGPLPPNLDDLKVSELRQQLRIRGHPVSGTKTALMDRLRPFQD [L26H] | -1.1 ± 0.27
57 | KPGPLPPNLDMLKVSELRQQLRIRGLPVSGTKTALMDRLRPFQD [D11M] | 0.063 ± 0.11
58 | KPGPLPPNLDDLKVSELRQQLRIRGLPVSGTKTALMDRCRPFQD [L39C] | -0.785 ± 0.27
